According to publication PMC5779698, “Identification and analysis of OsttaDSP, a phosphoglucan phosphatase from Ostreococcus tauri” (PLoS ONE, 2018):

B1: OsttaDSP (Ostreococcus tauri) (protein)
chain: ATTTTRRGLADDDAYNAAMRAYSASPYEYKHDIGLYYHRIKPFLIVGTQPQTPADVDRLRETEGVTCVFNTQQEKDWKYWNVDYDSVRARAIETGMRHVRYPFEDFSADSLREGLPSAAAMLDAEIERGETVYLHCTAGMGRSPGLAIAYMYWFLDAYNTLDGAYEGLTSIRPCGPKKESIRGATCDLLAAIESDGKVEPLKRELEENEGVVLSIVSKERIQRAVRAMLLSTSDETVAKPWWKVW
notes: mature protein lacking the first 26 residues (predicted chloroplast transit peptide), 245 residues, N-terminal His6 tag kept, synthetic gene, pRSFDuet-1, E. coli BL21(DE3) pLys; homodimer

Assays:
[1] = target: OsttaDSP, dual specific phosphatase from Ostreococcus tauri, mature protein lacking the chloroplast transit peptide (Ostreococcus tauri); assay: SEC; HiPrep Sephacryl S-300 High-Resolution column, calibrated with a molecular weight kit; affinity-purified mature OsttaDSP, single peak of an estimated 54.4 kDa
purified protein = substrate: O=[N+]([O-])c1ccc(OP(=O)(O)O)cc1; assay: purified protein; assay type: biochemical, Ostreococcus tauri; details: pH 7, 37 °C, 2 mM DTT, hyperbolic saturation

Molecule | stoichiometry N [1] | K0.5 (purified protein) [mM]
OsttaDSP, dual specific phosphatase from Ostreococcus tauri, mature protein lacking the chloroplast transit peptide (enzyme) | 2 | –
B1 | – | 22.7 ± 3.4
